Measurements published in PMC5101189, “Structure of the MIS12 Complex and Molecular Basis of Its Interaction with CENP-C at Human Kinetochores” (Cell, 2016).

Biological target: T1, NSL1, full length (subunit of the full-length MIS12C in the KMN assembly) (human, UniProt Q96IY1 1-281)
T1 sequence (looked up): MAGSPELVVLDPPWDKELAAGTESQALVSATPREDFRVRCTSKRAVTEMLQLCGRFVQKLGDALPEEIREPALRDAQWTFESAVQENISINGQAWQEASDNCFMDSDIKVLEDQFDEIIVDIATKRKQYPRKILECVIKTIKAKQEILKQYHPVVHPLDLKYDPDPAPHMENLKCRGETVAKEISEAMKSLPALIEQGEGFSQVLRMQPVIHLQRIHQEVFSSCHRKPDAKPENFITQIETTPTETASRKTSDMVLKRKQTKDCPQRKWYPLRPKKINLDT
Experiment: cross-linking; 10-subunit KMN assembly with a CENP-C fragment, 45 μg at 1 mg/ml, 650 μM BS3 (d0/d12), 30 min at 37°C; trypsin or AspN digest, tandem mass spectrometry (xQuest)
Settings: both partners purified

B1: ZWINT (natural protein, human, UniProt O95229 1-277, looked up)
chain: MEAAETEAEAAALEVLAEVAGILEPVGLQEEAELPAKILVEFVVDSQKKDKLLCSQLQVADFLQNILAQEDTAKGLDPLASEDTSRQKAIAAKEQWKELKATYREHVEAIKIGLTKALTQMEEAQRKRTQLREAFEQLQAKKQMAMEKRRAVQNQWQLQQEKHLQHLAEVSAEVRERKTGTQQELDRVFQKLGNLKQQAEQERDKLQRYQTFLQLLYTLQGKLLFPEAEAEAENLPDDKPQQPTRPQEQSTGDTMGRDPGVSFKAVGLQPAGDVNLP
notes: ZWINT, human, subunit of KNL1C in the cross-linked 10-subunit KMN assembly; also called Zwint1
binding result: binds
